Test results from PMC2603313, “Direct Inhibition of GSK3β by the Phosphorylated Cytoplasmic Domain of LRP6 in Wnt/β-Catenin Signaling” (PLoS ONE, 2008).
Changes are numbered by the printed parent chain. In names and notes the source's numbering stands. Blank lines part the entries; values can stand above or below the molecule they belong to. Ends that are not written are not given here.

Experiments:
[1] = target: T1, GSK3β (Mus musculus, UniProt Q9WV60); experiment: Far western binding of GSK3β to GST-fused LRP6 fragments; conditions: for Binding of GSK3β: GST-fusion treated with GSK3β and CK1, GSK3β 1 µg/ml, three independent experiments
T1 construct: The catalytic domains of mouse GSK3β (residues 27–393) and CK1ε (residues 1–319) were expressed and purified; made in house
Text: We first investigated whether the intracellular region of LRP6 binds to GSK3β in a phosphorylation-dependent manner. To detect binding, we used recombinant GST-fused LRP6 fragments (miniCL, miniCLMT, PPPSPxS, PPPAPxS; Fig. 1A) and GSK3β proteins in a far western binding assay. This assay is appropriate as the LRP6 cytoplasmic region is expected to be natively unstructured and therefore should not suffer from denaturation artifacts. Prior to the binding reaction, the GST-fused LRP6 fragments were phosphorylated by GSK3β and CK1 and transferred to a PVDF membrane. The membrane was incubated with GSK3β, and bound GSK3β was detected with an anti-GSK3β antibody. GSK3β bound to GST-miniCL and GST-miniCLMT, but not GST-PPPSPxS or GST-PPPAPxS (Fig. 4). […] Also, given the measured Ki value of the single PPPSPxS motif, it was expected that the single PPPSPxS motif might exert a limited role in recruiting the GSK3β.
Figure 4 Phosphorylation-dependent binding of the LRP6 intracellular region to GSK3β in the absence and presence of Axin. (A) GST (Lane 1), GST-fused miniCL (Lane 3; GST-miniCL), GST-fused miniCLMT (Lane 5; GST-miniCLMT), and their phosphorylated forms (Lanes 2, 4, 6; indicated by “phos”) were loaded onto an SDS-polyacrylamide gel, and then transferred to PVDF membrane (Left top). […] The phosphorylated protein bands show an upshifted mobility on the gel. The PVDF membrane was incubated with 1 µg/ml of GSK3β to allow GSK3β to bind to the proteins in the membrane. The bound GSK3β was visualized on the transferred proteins by western blotting using an anti-GSK3β antibody (Left bottom), and the GSK3β protein used to obtain the phosphorylated forms of each protein is indicated by GSK3β*. The band intensities of bound GSK3β were measured from the three independent experiments (Right). […] The phosphorylated GST-fused miniCL was transferred to PVDF membrane, and the membrane was incubated with GSK3β (0.1 µg/ml) and GST-fused Axin GBD domain protein (0, 10 µM). Error bars indicate the standard deviation from three independent experiments. […]

[2] = target: T1, GSK3β; experiment: In vitro GSK3β activity assay with synthetic peptides (phosphorylation of primed β-catenin N-terminal fragment); assay type: biochemical; conditions: at 100 µM; primed β-catenin N-terminal fragment 7 µM, 1 mM ATP, pH 8.0, 30 min at 37°C; 4–7 independent experiments
Text: We synthesized one dually-phosphorylated (NPPPpSPApTERSH, where pS or pT designates a phosphorylated Ser or Thr residue), two singly-phosphorylated (NPPPSPApTERSH and NPPPp[…]) and one non-phosphorylated ([…]) peptides derived from the first PPPSPxS motif of LRP6 (Fig. 1A). To measure the GSK3β activity toward β-catenin in vitro, we utilized a β-catenin N-terminal fragment (residues 1–133), whose Ser45 was prephosphorylated by CK1, as a substrate (Ha et al., 2004). Each synthetic peptide was added to a reaction mixture containing the purified GSK3β enzyme and the substrate β-catenin N-terminal fragment. The GSK3β activity was determined through measurement of the intensity of the supershifted (retarded) β-catenin bands (Fig. S3), which represent the phosphorylated product species (Fig. S4), on an SDS-polyacrylamide gel (Figs. S3, S4, S5, S6, S7). […] This corresponds well with the results of Zeng et al., who reported that the first Ser residue in the PPPSPxS motif has a more important role in Wnt/β-catenin signaling than the second Ser residue.
The catalytic domains of mouse GSK3β (residues 27–393) and CK1ε (residues 1–319) were expressed and purified as previously described. The N-terminal region (residues 1–133) of β-catenin was expressed in Escherichia coli as a GST-fusion protein with a TEV protease cleavage site and then purified using Glutathione-agarose. Subsequently, the GST tag was cleaved using recombinant TEV protease and was removed by repeated HiTrapQ anion-exchange chromatography. The N-terminal region of β-catenin was then phosphorylated by incubation with the catalytic domain of CK1ε (0.28 mg/ml) at 37°C for 20 min in 50 mM Tris buffer (pH 8.0) containing 10 mM MgCl2, 10 mM 2-mercaptoethanol, and 2 mM phenylmethylsulfonylfluoride. The phosphorylated β-catenin fragment was then further purified using HiTrapQ anion-exchange chromatography to remove the CK1ε enzyme. […]

[3] = target: T2, catalytic domain of mouse GSK3β (residues 27–393) (mouse, UniProt Q9WV60 27-393); experiment: far-Western, overlay or dot blot; GST-fused LRP6 fragments (with or without prior treatment with GSK3β and CK1) run on SDS-PAGE and transferred to PVDF; membrane incubated 3 h with 1 µg/ml GSK3β in 5% skim milk in TBST (20 mM Tris pH 7.6, 137 mM NaCl, 0.05% Tween 20); bound GSK3β detected with anti-GSK3β antibody; conditions: both partners purified
T2 construct: GSK3β (glycogen synthase kinase 3 beta), mouse, catalytic domain, residues 27-393; also called recombinant GSK3β catalytic domain; source: recombinant, expressed and purified as previously described [32]

Molecule: GST-miniCL: GST-fused human LRP6 miniCL, residues 1470–1510 (SSSSSSTKGTYFPAILNPPPSPATERSHYTMEFGYSSNSPS; also: GST fusion (GST left off))
Binding of GSK3β [1]: bound

Molecule: GST-miniCLMT: GST-fused miniCLMT, residues 1470–1510 with substitution at Ser1490 with Ala (SSSSSSTKGTYFPAILNPPPAPATERSHYTMEFGYSSNSPS; also: GST fusion (GST left off))
Effect of S1490A mutation on GSK3β binding [1]: does not affect binding
Binding of GSK3β [1]: bound

Molecule: NPPPSPApTERSH [PPPSPx(p)S, singly-phosphorylated peptide (second Ser/Thr) derived from the first PPPSPxS motif of LRP6]
Inhibitory effect on GSK3β activity toward β-catenin [2]: only a marginal inhibitory effect

Other lines, results leading:

binding result [3]: binds
B1: GST-fused LRP6 miniCL (residues 1470–1510 of human LRP6), phosphorylated by GSK3β and CK1 (domain or fragment, UniProt O75581 1470-1510, looked up)
chain: SSSSSSTKGTYFPAILNPPPSPATERSHYTMEFGYSSNSPS
modifications: also: GST-fused, end not given here, phosphorylated by GSK3β and CK1ε, sites not given here
notes: LRP6, human, intracellular fragment miniCL, residues 1470-1510 (Ser/Thr rich cluster and first PPPSPxS motif); also called phosphorylated GST-miniCL; GST-miniCL phos; source: E. coli, purified (Glutathione-agarose, HiTrapQ), then phosphorylated in vitro with recombinant GSK3β and CK1ε

binding result [3]: binds
B2: GST-fused LRP6 miniCLMT (residues 1470–1510 of human LRP6, S1490A), phosphorylated by GSK3β and CK1 (domain or fragment, UniProt O75581 1470-1510, looked up)
chain: B1 chain with S21A
modifications: also: GST-fused, end not given here, phosphorylated in vitro by GSK3β and CK1ε, sites not given here
notes: LRP6, human, intracellular fragment miniCL, residues 1470-1510, with Ser1490 replaced by Ala; also called phosphorylated GST-miniCLMT; GST-miniCLMT phos; source: E. coli, purified (Glutathione-agarose, HiTrapQ), then phosphorylated in vitro with recombinant GSK3β and CK1ε

binding result [3]: binds
B3: GST-fused LRP6 miniCLMT (residues 1470–1510 of human LRP6, S1490A), not phosphorylated (domain or fragment, UniProt O75581 1470-1510, looked up)
chain: B1 chain with S21A
modifications: also: GST fusion (GST left off)
notes: LRP6, human, intracellular fragment miniCL, residues 1470-1510, with Ser1490 replaced by Ala; also called GST-miniCLMT; source: E. coli, purified (Glutathione-agarose, HiTrapQ)
